Results on one molecule are retold here after paper PMC6120219.

The assay addresses T1, human TRAP1 (TNF receptor-associated protein 1), full-length WT without mitochondrial signal sequence (human) (UniProt Q12931).
T1 sequence: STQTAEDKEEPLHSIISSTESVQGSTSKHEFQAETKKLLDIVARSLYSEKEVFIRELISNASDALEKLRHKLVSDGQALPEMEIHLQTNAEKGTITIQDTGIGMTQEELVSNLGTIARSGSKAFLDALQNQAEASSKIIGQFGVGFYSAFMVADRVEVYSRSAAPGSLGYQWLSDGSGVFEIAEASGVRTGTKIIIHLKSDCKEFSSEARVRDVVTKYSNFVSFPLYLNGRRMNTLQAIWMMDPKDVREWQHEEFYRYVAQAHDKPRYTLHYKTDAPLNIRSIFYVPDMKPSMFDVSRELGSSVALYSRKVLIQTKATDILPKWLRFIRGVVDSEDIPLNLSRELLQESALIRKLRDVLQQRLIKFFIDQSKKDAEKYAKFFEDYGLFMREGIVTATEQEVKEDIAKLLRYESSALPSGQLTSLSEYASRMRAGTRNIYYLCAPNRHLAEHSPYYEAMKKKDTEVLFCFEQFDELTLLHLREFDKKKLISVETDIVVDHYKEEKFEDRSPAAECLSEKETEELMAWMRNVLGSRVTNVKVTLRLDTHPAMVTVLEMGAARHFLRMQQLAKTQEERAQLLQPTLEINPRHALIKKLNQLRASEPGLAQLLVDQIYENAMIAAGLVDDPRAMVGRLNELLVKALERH

B1: human TRAP1 D158N point mutant (natural protein)
chain: STQTAEDKEEPLHSIISSTESVQGSTSKHEFQAETKKLLDIVARSLYSEKEVFIRELISNASDALEKLRHKLVSDGQALPEMEIHLQTNAEKGTITIQNTGIGMTQEELVSNLGTIARSGSKAFLDALQNQAEASSKIIGQFGVGFYSAFMVADRVEVYSRSAAPGSLGYQWLSDGSGVFEIAEASGVRTGTKIIIHLKSDCKEFSSEARVRDVVTKYSNFVSFPLYLNGRRMNTLQAIWMMDPKDVREWQHEEFYRYVAQAHDKPRYTLHYKTDAPLNIRSIFYVPDMKPSMFDVSRELGSSVALYSRKVLIQTKATDILPKWLRFIRGVVDSEDIPLNLSRELLQESALIRKLRDVLQQRLIKFFIDQSKKDAEKYAKFFEDYGLFMREGIVTATEQEVKEDIAKLLRYESSALPSGQLTSLSEYASRMRAGTRNIYYLCAPNRHLAEHSPYYEAMKKKDTEVLFCFEQFDELTLLHLREFDKKKLISVETDIVVDHYKEEKFEDRSPAAECLSEKETEELMAWMRNVLGSRVTNVKVTLRLDTHPAMVTVLEMGAARHFLRMQQLAKTQEERAQLLQPTLEINPRHALIKKLNQLRASEPGLAQLLVDQIYENAMIAAGLVDDPRAMVGRLNELLVKALERH
Consider B1, for which the Vmax of ATPase activity of the WT:D158N heterodimer mixture, ATP titration with CaCl2 (μM ATP min^−1/μM ATPase) turned out to be 2.31 and the Vmax of ATPase activity of the WT:D158N heterodimer mixture, ATP titration with MgCl2 (μM ATP min^−1/μM ATPase) was 3.77.
